# Laboratory results: patent US20190153112A1 (IMMUTEP S A S, published 2019)
# B1: chimeric 13E2-human IgG4 antibody Chim13E2IgG4 (antibody, V domains shown)
# VH: QVTLKESGPGILQPSQTLSLTCSFSGFSLSTSGMGLGWIRQPSGKGLEWLTHIWWDDIKRYNPDLRSRLTISKDTSSSQIFLKIASVDTADTATYYCARIVEGSYSSSYFDVWGAGTTVTVSS
# VL: DIVMTQPHKFMSTSVEDRVTITCKASQDVIFDVAWYQQKPGQSPKLLIYSASSRVSGVPDRFTGSGSGTDFTFTISSVQAEDLAVYYCQQHYSTPYTFGGGTTLEIKR
# notes: The light chain is the 13E2 VL with wild-type human kappa; also called chimeric 13E2 IgG4; heavy chain 13E2IgG4mut
# B2: humanized 13E2 monoclonal antibody IMP761 (antibody, human IgG4 S228P, kappa, V domains shown)
# VH: QITLKESGPTLVKPTQTLTLTCTFSGFSLSTSGMGLGWIRQPPGKTLEWLTHIWWDDIKRYNPDLRSRLSITKDTSKNQVVLTMTNMDPLDTGTYYCARIVEGSYSSSYFDVWGQGTLVTVSS
# VL: DIVMTQTPSSLSASVGDRVTITCKASQDVIFDVAWYQQRPGQAPKLLIYSASSRVSGVPSRFSGSGSGTDFTLTISSLQPEDFATYYCQQHYSTPYTFGQGTRLDIKR
# notes: Human IgG4 (S228P) with kappa light chain; also called humanized 13E2 IgG4; VH4/VL3
# Legend:
# [1] = target: IMP321 (recombinant soluble human LAG-3Ig fusion protein) (human) (UniProt P18627); assay: FACS, LAG-3Ig-Alexa 488 (1 µg/ml) pre-incubated with antibody 990 ng/ml, then bound to Raji (MHC class II+) cells
# [2] = target: IMP321 (recombinant soluble human LAG-3Ig fusion protein) (human) (UniProt P18627); assay: cell-based or functional assay
# [3] = target: human LAG-3 protein (Lymphocyte activation gene-3) on the cell surface (human) (UniProt P18627); assay: flow cytometry on LAG-3-transfected CHO cells; antibody 10000 ng/ml
# human LAG-3 protein (Lymphocyte activation gene-3) on the cell surface (human), sequence (P18627 other isoform, or with tags, fused parts or gaps): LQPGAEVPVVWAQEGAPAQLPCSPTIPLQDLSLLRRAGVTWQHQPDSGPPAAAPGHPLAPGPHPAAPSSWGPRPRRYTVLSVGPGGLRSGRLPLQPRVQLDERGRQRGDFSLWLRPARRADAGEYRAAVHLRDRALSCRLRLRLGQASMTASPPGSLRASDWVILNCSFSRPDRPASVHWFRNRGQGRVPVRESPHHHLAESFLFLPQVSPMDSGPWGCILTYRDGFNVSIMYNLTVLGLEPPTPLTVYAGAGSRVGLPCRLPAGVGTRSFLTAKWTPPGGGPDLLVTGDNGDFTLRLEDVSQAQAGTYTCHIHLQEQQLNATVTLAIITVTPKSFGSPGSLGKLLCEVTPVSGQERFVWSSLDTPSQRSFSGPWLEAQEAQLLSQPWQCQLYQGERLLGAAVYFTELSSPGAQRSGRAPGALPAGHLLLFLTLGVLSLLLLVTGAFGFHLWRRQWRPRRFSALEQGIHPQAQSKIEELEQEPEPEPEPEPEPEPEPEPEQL
# [4] = target: human LAG-3 protein (Lymphocyte activation gene-3) on the cell surface (human) (UniProt P18627); assay: flow cytometry on CD8+ cells of SEB-stimulated PBMCs (Donor 1); antibody 0 ng/ml (no-antibody background)
# [5] = target: human LAG-3 protein (Lymphocyte activation gene-3) on the cell surface (human) (UniProt P18627); assay: flow cytometry on CD4+ cells of SEB-stimulated PBMCs (Donor 1); antibody 2326 ng/ml
# [6] = target: human LAG-3 protein (Lymphocyte activation gene-3) on the cell surface (human) (UniProt P18627); assay: flow cytometry on CD8+ cells of SEB-stimulated PBMCs (Donor 1); antibody 29 ng/ml
# [7] = target: human LAG-3 protein (Lymphocyte activation gene-3) on the cell surface (human) (UniProt P18627); assay: flow cytometry on CD8+ cells of SEB-stimulated PBMCs (Donor 1); antibody 10000 ng/ml
# [8] = target: human LAG-3 protein (Lymphocyte activation gene-3) on the cell surface (human) (UniProt P18627); assay: flow cytometry on LAG-3-transfected CHO cells; antibody 2000 ng/ml
# [9] = target: IMP321 (recombinant soluble human LAG-3Ig fusion protein) (human) (UniProt P18627); assay: FACS, LAG-3Ig-Alexa 488 (1 µg/ml) pre-incubated with antibody 297 ng/ml, then bound to Raji (MHC class II+) cells
# [10] = target: human LAG-3 protein (Lymphocyte activation gene-3) on the cell surface (human) (UniProt P18627); assay: flow cytometry on LAG-3-transfected CHO cells; antibody 500 ng/ml
# [11] = target: human LAG-3 protein (Lymphocyte activation gene-3) on the cell surface (human) (UniProt P18627); assay: flow cytometry on CD8+ cells of SEB-stimulated PBMCs (Donor 1); antibody 0.4 ng/ml
# [12] = target: IMP321 (recombinant soluble human LAG-3Ig fusion protein) (human) (UniProt P18627); assay: FACS, LAG-3Ig-Alexa 488 (1 µg/ml) with antibody 0 ng/ml (no-antibody value), bound to Raji (MHC class II+) cells
# [13] = target: human LAG-3 protein (Lymphocyte activation gene-3) on the cell surface (human) (UniProt P18627); assay: flow cytometry on CD8+ cells of SEB-stimulated PBMCs (Donor 1); antibody 126 ng/ml
# [14] = target: IMP321 (recombinant soluble human LAG-3Ig fusion protein) (human) (UniProt P18627); assay: FACS, LAG-3Ig-Alexa 488 (1 µg/ml) pre-incubated with antibody 27 ng/ml, then bound to Raji (MHC class II+) cells
# [15] = target: IMP321 (recombinant soluble human LAG-3Ig fusion protein) (human) (UniProt P18627); assay: FACS, LAG-3Ig-Alexa 488 (1 µg/ml) pre-incubated with antibody 3300 ng/ml, then bound to Raji (MHC class II+) cells
# [16] = target: human LAG-3 protein (Lymphocyte activation gene-3) on the cell surface (human) (UniProt P18627); assay: flow cytometry on CD4+ cells of SEB-stimulated PBMCs (Donor 1); antibody 0.4 ng/ml
# [17] = target: human LAG-3 protein (Lymphocyte activation gene-3) on the cell surface (human) (UniProt P18627); assay: flow cytometry on CD4+ cells of SEB-stimulated PBMCs (Donor 1); antibody 29 ng/ml
# [18] = target: human LAG-3 protein (Lymphocyte activation gene-3) on the cell surface (human) (UniProt P18627); assay: flow cytometry on LAG-3-transfected CHO cells; antibody 0 ng/ml (no-antibody background)
# [19] = target: human LAG-3 protein (Lymphocyte activation gene-3) on the cell surface (human) (UniProt P18627); assay: flow cytometry on CD4+ cells of SEB-stimulated PBMCs (Donor 1); antibody 1.6 ng/ml
# [20] = target: human LAG-3 protein (Lymphocyte activation gene-3) on the cell surface (human) (UniProt P18627); assay: flow cytometry on CD8+ cells of SEB-stimulated PBMCs (Donor 1); antibody 7 ng/ml
# [21] = target: human LAG-3 protein (Lymphocyte activation gene-3) on the cell surface (human) (UniProt P18627); assay: flow cytometry on CD8+ cells of SEB-stimulated PBMCs (Donor 1); antibody 541 ng/ml
# [22] = target: IMP321 (recombinant soluble human LAG-3Ig fusion protein) (human) (UniProt P18627); assay: FACS, LAG-3Ig-Alexa 488 (1 µg/ml) pre-incubated with antibody 89 ng/ml, then bound to Raji (MHC class II+) cells
# [23] = target: human LAG-3 protein (Lymphocyte activation gene-3) on the cell surface (human) (UniProt P18627); assay: flow cytometry on CD4+ cells of SEB-stimulated PBMCs (Donor 1); antibody 0 ng/ml (no-antibody background)
# [24] = target: human LAG-3 protein (Lymphocyte activation gene-3) on the cell surface (human) (UniProt P18627); assay: flow cytometry on CD8+ cells of SEB-stimulated PBMCs (Donor 1); antibody 2326 ng/ml
# [25] = target: human LAG-3 protein (Lymphocyte activation gene-3) on the cell surface (human) (UniProt P18627); assay: flow cytometry on CD4+ cells of SEB-stimulated PBMCs (Donor 1); antibody 10000 ng/ml
# [26] = target: human LAG-3 protein (Lymphocyte activation gene-3) on the cell surface (human) (UniProt P18627); assay: flow cytometry on CD4+ cells of SEB-stimulated PBMCs (Donor 1); antibody 7 ng/ml
# [27] = target: human LAG-3 protein (Lymphocyte activation gene-3) on the cell surface (human) (UniProt P18627); assay: flow cytometry on CD8+ cells of SEB-stimulated PBMCs (Donor 1); antibody 1.6 ng/ml
# [28] = target: human LAG-3 protein (Lymphocyte activation gene-3) on the cell surface (human) (UniProt P18627); assay: flow cytometry on CD4+ cells of SEB-stimulated PBMCs (Donor 1); antibody 126 ng/ml
# [29] = target: human LAG-3 protein (Lymphocyte activation gene-3) on the cell surface (human) (UniProt P18627); assay: flow cytometry on CD4+ cells of SEB-stimulated PBMCs (Donor 1); antibody 541 ng/ml
# [30] = target: IMP321 (recombinant soluble human LAG-3Ig fusion protein) (human) (UniProt P18627); assay: FACS, LAG-3Ig-Alexa 488 (1 µg/ml) pre-incubated with antibody 11000 ng/ml, then bound to Raji (MHC class II+) cells
# [31] = target: T1, IMP321 (recombinant soluble human LAG-3Ig fusion protein) (human, UniProt P18627 23-450); assay: Biacore T200 SPR, antibody immobilized on C1 chip, IMP321 0.078-2.5 nM as analyte, 25 °C, 1:1 fit, average of three runs
# T1 construct: extracellular domain; also called sLAG-3Ig; LC1
# T1 sequence (looked up): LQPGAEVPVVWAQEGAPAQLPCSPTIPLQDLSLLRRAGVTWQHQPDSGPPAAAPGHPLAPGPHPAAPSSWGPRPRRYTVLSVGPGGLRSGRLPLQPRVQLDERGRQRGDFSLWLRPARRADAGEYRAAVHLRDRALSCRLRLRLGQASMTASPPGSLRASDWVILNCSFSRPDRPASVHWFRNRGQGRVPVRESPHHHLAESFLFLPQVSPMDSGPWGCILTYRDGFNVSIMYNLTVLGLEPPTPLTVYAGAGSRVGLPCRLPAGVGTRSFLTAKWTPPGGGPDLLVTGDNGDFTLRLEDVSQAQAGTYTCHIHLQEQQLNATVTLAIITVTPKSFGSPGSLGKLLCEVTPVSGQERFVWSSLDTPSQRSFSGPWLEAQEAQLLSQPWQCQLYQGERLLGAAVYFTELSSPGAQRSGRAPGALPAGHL
# Method: A Biacore™ surface plasmon resonance analysis was performed using the chimeric antibody Chim13E2IgG4 (comprising the chimeric heavy chain 13E2IgG4mut, and the chimeric light chain 13E2IgK, described in Example 17), or the humanized 13E2 antibody (IMP761) described in Example 18, covalently immobilized to a C1 sensor chip. The coating was performed in 10 mM sodium acetate, pH 5.0, to reach 13±1 RU. The recombinant human LAG-3Ig protein (IMP321) was then passed over the captured antibodies at 6 different concentrations, ranging from 0.078-2.5 nM, in analysis buffer (10 mM HEPES pH 7.4, 150 mM NaCl, 3 mM EDTA, 0.05% Tween 20) at 25° C., with regeneration in every cycle. The analysis was carried out on Biacore™ T200 and the data was fitted using the kinetic global fit (Langmuir 1:1) model. The kinetics parameters are recorded in Table 29, and represent the average of three runs.
molecule,measurement,setting,value
isotype control antibody (mIgG1),MFI of sLAG-3Ig-Alexa 488,[1],361 MFI
same,[CCL4] in THP-1 monocytic cells supernatant; IMP321 20 ng/ml pre-incubated with antibody 2 ng/ml,[2],2050 pg/mL
same,[CCL4] in THP-1 monocytic cells supernatant; IMP321 20 ng/ml pre-incubated with antibody 20 ng/ml,[2],2140 pg/mL
same,[CCL4] in THP-1 monocytic cells supernatant; IMP321 20 ng/ml pre-incubated with antibody 200 ng/ml,[2],2220 pg/mL
same,[CCL4] in THP-1 monocytic cells supernatant; IMP321 20 ng/ml pre-incubated with antibody 2000 ng/ml,[2],2260 pg/mL
same,[CCL4] in THP-1 monocytic cells supernatant; IMP321 20 ng/ml pre-incubated with antibody 20000 ng/ml,[2],2900 pg/mL
same,"[CCL4] in THP-1 monocytic cells supernatant; IMP321 20 ng/ml, antibody 0 ng/ml (no-antibody value)",[2],2110 pg/mL
same,MFI,[3],440 MFI
same,MFI,[4],112 MFI
same,MFI,[5],113 MFI
same,MFI,[6],110 MFI
same,MFI,[7],140 MFI
same,MFI,[8],251 MFI
same,MFI of sLAG-3Ig-Alexa 488,[9],373 MFI
same,MFI,[10],168 MFI
same,MFI,[11],112 MFI
same,MFI of sLAG-3Ig-Alexa 488,[12],284 MFI
same,MFI,[13],115 MFI
same,MFI of sLAG-3Ig-Alexa 488,[14],254 MFI
same,MFI of sLAG-3Ig-Alexa 488,[15],359 MFI
same,MFI,[16],106 MFI
same,MFI,[17],108 MFI
same,MFI,[18],156 MFI
same,MFI,[19],127 MFI
same,MFI,[20],114 MFI
same,MFI,[21],120 MFI
same,MFI of sLAG-3Ig-Alexa 488,[22],324 MFI
same,MFI,[23],106 MFI
same,MFI,[24],137 MFI
same,MFI,[25],116 MFI
same,MFI,[26],110 MFI
same,MFI,[27],116 MFI
same,MFI,[28],109 MFI
same,MFI,[29],116 MFI
same,MFI of sLAG-3Ig-Alexa 488,[30],328 MFI
B1,Kd,[31],0.0219 nM
same,koff,[31],0.00064 s⁻¹
same,kon,[31],2.9e+07 M⁻¹ s⁻¹
B2,Kd,[31],0.0228 nM
same,koff,[31],0.00066 s⁻¹
same,kon,[31],2.9e+07 M⁻¹ s⁻¹
